Assay results reported in patent US20200173960A1.

Legend:
[1] = target: trastuzumab; experiment: ELISA Kit A (anti-idiotype capture) of trastuzumab 0.5 ug/mL pre-bound with ADA; trastuzumab:ADA 1:100
[2] = target: trastuzumab; experiment: method not stated; affinity listed for the purchased ADA
[3] = target: trastuzumab; experiment: ELISA Kit A (anti-idiotype capture) of trastuzumab 50 ug/mL pre-bound with ADA; trastuzumab:ADA 10:1
[4] = target: trastuzumab; experiment: ELISA Kit A (anti-idiotype capture) of trastuzumab 0.5 ug/mL pre-bound with ADA; trastuzumab:ADA 1:2
[5] = target: trastuzumab; experiment: ELISA Kit B (HER2 capture, anti-human IgG Fc detection) of trastuzumab 0.5 ug/mL pre-bound with ADA; trastuzumab:ADA 10:1
[6] = target: trastuzumab; experiment: ELISA Kit A (anti-idiotype capture) of trastuzumab 0.5 ug/mL pre-bound with ADA; trastuzumab:ADA 5:1
[7] = target: trastuzumab; experiment: ELISA Kit A (anti-idiotype capture) of trastuzumab 0.5 ug/mL pre-bound with ADA; trastuzumab:ADA 1:1
[8] = target: trastuzumab; experiment: ELISA Kit A (anti-idiotype capture) of trastuzumab 0.5 ug/mL pre-bound with ADA; trastuzumab:ADA 1:5
[9] = target: trastuzumab; experiment: ELISA Kit A (anti-idiotype capture) of trastuzumab 0.5 ug/mL pre-bound with ADA; trastuzumab:ADA 1:10
[10] = target: trastuzumab; experiment: cell-based or functional assay
[11] = target: trastuzumab; experiment: ELISA Kit A (anti-idiotype capture) of trastuzumab 50 ug/mL pre-bound with ADA; trastuzumab:ADA 1:1
[12] = target: trastuzumab; experiment: ELISA Kit A (anti-idiotype capture) of trastuzumab 0.5 ug/mL pre-bound with ADA; trastuzumab:ADA 10:1
[13] = target: trastuzumab; experiment: ELISA Kit A (anti-idiotype capture) of trastuzumab 0.5 ug/mL pre-bound with ADA; trastuzumab:ADA 1:50
[14] = target: trastuzumab; experiment: ELISA Kit B (HER2 capture, anti-human IgG Fc detection) of trastuzumab 0.5 ug/mL pre-bound with ADA; trastuzumab:ADA 1:1
[15] = target: trastuzumab; experiment: ELISA Kit B (HER2 capture, anti-human IgG Fc detection) of trastuzumab 0.5 ug/mL pre-bound with ADA; trastuzumab:ADA 1:100
[16] = target: trastuzumab; experiment: ELISA Kit A (anti-idiotype capture) of trastuzumab 50 ug/mL pre-bound with ADA; trastuzumab:ADA 5:1
[17] = target: trastuzumab; experiment: ELISA Kit B (HER2 capture, anti-human IgG Fc detection) of trastuzumab 0.5 ug/mL pre-bound with ADA; trastuzumab:ADA 1:10
[18] = target: trastuzumab; experiment: ELISA Kit A (anti-idiotype capture) of trastuzumab 50 ug/mL pre-bound with ADA; trastuzumab:ADA 100:1

Accuracy (%) ELISA [3] [%]	Accuracy (%) Kit B [5] [%]	Accuracy (%) ELISA [6] [%]	Accuracy (%) ELISA [7] [%]	Accuracy (%) nSMOL; trastuzumab 0.5 ug/mL; trastuzumab:ADA 1:1 [10] [%]	Accuracy (%) nSMOL; trastuzumab 0.5 ug/mL; trastuzumab:ADA 1:2 [10] [%]	Accuracy (%) nSMOL; trastuzumab 0.5 ug/mL; trastuzumab:ADA 1:5 [10] [%]	Accuracy (%) nSMOL; trastuzumab 0.5 ug/mL; trastuzumab:ADA 1:10 [10] [%]	Accuracy (%) nSMOL; trastuzumab 0.5 ug/mL; trastuzumab:ADA 1:50 [10] [%]	Accuracy (%) nSMOL; trastuzumab 0.5 ug/mL; trastuzumab:ADA 1:100 [10] [%]	Accuracy (%) nSMOL; trastuzumab 0.5 ug/mL; trastuzumab:ADA 5:1 [10] [%]	Accuracy (%) nSMOL; trastuzumab 0.5 ug/mL; trastuzumab:ADA 10:1 [10] [%]	Accuracy (%) nSMOL; trastuzumab 50 ug/mL; trastuzumab:ADA 1:1 [10] [%]	Accuracy (%) nSMOL; trastuzumab 50 ug/mL; trastuzumab:ADA 5:1 [10] [%]	Accuracy (%) nSMOL; trastuzumab 50 ug/mL; trastuzumab:ADA 10:1 [10] [%]	Accuracy (%) nSMOL; trastuzumab 50 ug/mL; trastuzumab:ADA 100:1 [10] [%]	Accuracy (%) nSMOL; trastuzumab first immobilized on Protein A; trastuzumab:ADA 1:1 [10] [%]	Accuracy (%) nSMOL; trastuzumab first immobilized on Protein A; trastuzumab:ADA 5:1 [10] [%]	Accuracy (%) nSMOL; trastuzumab first immobilized on Protein A; trastuzumab:ADA 10:1 [10] [%]	Accuracy (%) nSMOL; trastuzumab first immobilized on Protein A; trastuzumab:ADA 100:1 [10] [%]	Substance	also measured
69.6	101	98	78.7	99.9	93.4	101	89.1	86.6	88.7	93.3	106	94.8	96.7	104	94.7	102	98.3	102	93.5	HCA176 (antibody)	Accuracy (%) ELISA [1]: 82.6%; Kd [2]: 0.4 nM; Accuracy (%) ELISA [4]: 75.2%; Accuracy (%) ELISA [8]: 75.4%; Accuracy (%) ELISA [9]: 76.6%; Accuracy (%) ELISA [11]: 57.3%; Accuracy (%) ELISA [12]: 116%; Accuracy (%) ELISA [13]: 73.1%; Accuracy (%) Kit B [14]: 36.1%; Accuracy (%) Kit B [15]: 11.7%; Accuracy (%) ELISA [16]: 72.1%; Accuracy (%) Kit B [17]: 3.93%; Accuracy (%) ELISA [18]: 84.6%
74.2	88.9	96.9	0.632	102	97.8	108	109	115	100	103	105	102	105	110	102	96.2	108	105	109	MAB11130 (antibody)	Accuracy (%) ELISA [11]: 2.75%; Accuracy (%) ELISA [12]: 102%; Accuracy (%) Kit B [14]: 3.69%; Accuracy (%) Kit B [15]: 4.49%; Accuracy (%) ELISA [16]: 72.8%; Accuracy (%) Kit B [17]: 1.36%; Accuracy (%) ELISA [18]: 83.5%
85.3	97.4	112	110	96.1	84.4	78.7	81	89.5	74.1	98.7	98.4	88	99.4	103	96.2	89.2	97.3	103	94.7	HCA177 (antibody)	Accuracy (%) ELISA [1]: 106%; Kd [2]: 0.02 nM; Accuracy (%) ELISA [4]: 99.9%; Accuracy (%) ELISA [8]: 99.4%; Accuracy (%) ELISA [9]: 108%; inhibitory effect on quantification values (nSMOL), ratio 1:1 [10]: 10%; Accuracy (%) ELISA [11]: 84.5%; Accuracy (%) ELISA [12]: 103%; Accuracy (%) ELISA [13]: 112%; Accuracy (%) Kit B [14]: 46%; Accuracy (%) ELISA [16]: 92%; Accuracy (%) Kit B [17]: 0.962%; Accuracy (%) ELISA [18]: 98%
